How the values were obtained:
Test in all cases: cell-based or functional assay
[1] = target: human PERV-A receptor PHuR-A1 (human) (UniProt Q9HAB3)
[2] = target: human PERV-A receptor PHuR-A2 (human) (UniProt Q9NWF4)
[3] = target: baboon PERV-A receptor PBaR-A1 (baboon) (UniProt Q863Y8)
Sequence of UniProt Q863Y8 (Q863Y8 whole entry): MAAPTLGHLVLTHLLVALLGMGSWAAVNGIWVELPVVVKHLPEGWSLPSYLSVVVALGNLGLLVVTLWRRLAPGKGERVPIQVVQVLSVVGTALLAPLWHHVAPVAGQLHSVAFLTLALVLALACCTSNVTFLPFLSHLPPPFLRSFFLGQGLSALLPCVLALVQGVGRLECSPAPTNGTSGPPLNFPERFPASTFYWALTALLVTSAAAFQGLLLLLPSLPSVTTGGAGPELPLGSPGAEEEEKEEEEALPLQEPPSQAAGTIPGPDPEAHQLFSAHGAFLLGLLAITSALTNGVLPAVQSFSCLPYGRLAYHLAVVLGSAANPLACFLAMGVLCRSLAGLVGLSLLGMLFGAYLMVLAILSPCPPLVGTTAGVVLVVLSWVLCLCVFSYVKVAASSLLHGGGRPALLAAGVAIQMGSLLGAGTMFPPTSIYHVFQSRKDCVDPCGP

Sequence of UniProt Q9HAB3 (Q9HAB3 whole entry G341S): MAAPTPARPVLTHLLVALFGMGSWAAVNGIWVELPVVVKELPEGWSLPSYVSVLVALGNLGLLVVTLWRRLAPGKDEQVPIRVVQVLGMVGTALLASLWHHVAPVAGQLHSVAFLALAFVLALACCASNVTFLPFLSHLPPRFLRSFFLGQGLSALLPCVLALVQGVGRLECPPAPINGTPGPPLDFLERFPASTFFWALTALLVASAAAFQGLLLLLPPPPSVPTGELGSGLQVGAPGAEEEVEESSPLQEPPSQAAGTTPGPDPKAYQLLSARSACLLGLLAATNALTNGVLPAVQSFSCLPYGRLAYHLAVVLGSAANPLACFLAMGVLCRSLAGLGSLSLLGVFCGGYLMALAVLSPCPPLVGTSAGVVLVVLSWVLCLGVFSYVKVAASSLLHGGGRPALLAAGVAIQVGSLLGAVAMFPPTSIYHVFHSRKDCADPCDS
Sequence of UniProt Q9NWF4 (Q9NWF4 whole entry Q70R/V296M): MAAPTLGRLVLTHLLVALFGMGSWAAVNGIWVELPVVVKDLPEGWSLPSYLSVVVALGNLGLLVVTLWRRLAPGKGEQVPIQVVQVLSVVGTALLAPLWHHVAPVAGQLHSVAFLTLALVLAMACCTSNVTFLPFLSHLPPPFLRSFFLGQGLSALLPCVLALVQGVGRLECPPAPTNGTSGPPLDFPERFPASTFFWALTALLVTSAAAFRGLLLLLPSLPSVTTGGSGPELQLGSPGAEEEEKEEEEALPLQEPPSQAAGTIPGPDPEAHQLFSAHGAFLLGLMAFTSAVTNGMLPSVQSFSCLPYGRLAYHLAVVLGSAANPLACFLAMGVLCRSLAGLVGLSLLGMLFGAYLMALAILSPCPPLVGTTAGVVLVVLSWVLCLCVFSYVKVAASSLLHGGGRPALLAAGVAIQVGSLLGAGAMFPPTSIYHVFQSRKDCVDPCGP

Substance	Approximate LacZ pseudotype titer IU/ml [1]	Approximate LacZ pseudotype titer IU/ml [2]	Approximate LacZ pseudotype titer IU/ml [3]
PERV-A 14/220 envelope (ENV) protein, carried on replication competent recombinant PERV-A/PERV-C virus particles	4000 IU/ml	20000 IU/ml	6000 IU/ml
TelCeB PERV-A18 LacZ pseudotype (PERV-A envelope)	6 IU/ml	1000 IU/ml	–

— patent US20030175904A1
